{"source": "patent US11078259B2", "about": "“Methods and compositions for promoting thermogenic potential” (Joslin Diabetes Center, Inc., priority 2015, dated 2021)", "type_in_all_cases": "cell-based, human", "key": {"[1]": {"system": "hWAT-SVF and hBAT-SVF progenitors", "assay": "BMP pre-treatment of progenitors, Q-RT-PCR for UCP1 and PPARγ in mature adipocytes"}, "[2]": {"system": "hBAT-SVF clones", "assay": "Clonal analysis: UCP1-luciferase response to BMP7 pretreatment", "protocol": "(§1) FIG. 8 depicts clonal analysis of human brown and white fat progenitors. Specifically, the strategy of clonal analysis of hWAT-SVF and hBAT-SVF progenitors is shown as a dendrogram. 152 clones from hWAT-SVF and 128 clones from hBAT-SVF were derived by limiting dilution from 4 subjects. Adipogenic capacity was determined by Nile red staining and UCP1 level was determined by luciferase activity on day 18. Detailed selection criteria are described in FIGS. 9 and 10. Selected highly adipogenic clones (adipogenic++) were pre-treated with 3.3 nM BMP7 for 6 days and then differentiated into mature adipocytes in a 96-well plate. Luciferase activity was measured on day 18 and divided into different levels (negative, Neg; low; medium, Med; high) after normalized to protein content. The positive response (+) to BMP7 pretreatment was defined by more than 1.5-fold increase of luciferase activity between BMP7-pretreated and vehicle groups.\n(§2) Immortalized progenitor cells were plated and grown in DMEM/H medium supplemented with 10% FBS (day 0). For adipocyte differentiation, cell were grown for 6 days until reaching confluence (day 6), and then treated with the adipogenic induction medium as described above for 12 days (termed as day 18). To further stimulate thermogenic program, fully differentiated cells were incubated with 10 μM forskolin for 4 h. For BMPs and FGF21 pre-treatment, recombinant BMP7 (3.3 nM), BMP8 (3.3 nM), or FGF21 (50 nM) were added to undifferentiated cells in medium containing insulin (0.5 μM), T3 (2 nM) and 2% FBS for 6 days followed by adipogenic induction for 12 days. For BMPs and FGF21 post-treatment, fully differentiated adipocytes at day 18 were treated with recombinant BMP7 (3.3 nM), BMP8 (3.3 nM), or FGF21 (50 nM) in medium containing insulin (0.5 μM), T3 (2 nM) and 2% FBS for 2 days.\n(§3) In vitro luciferase assays were performed using luciferase assay kits (Promega, Madison, Wis.) according to the manufacturer's instructions. Remove culture medium from differentiated adipocytes and wash cells in PBS. Dispense an appropriate volume of 1× lysis reagent (Passive Lysis Buffer) into each culture well. Scrape attached cells from the wells, and transfer the cell lysates into white 96-well plate (Corning Inc., Tewksbury, Mass.) for detection of the bioluminescence signal using luminometer plate reader (BioTek Instruments, Inc., Winooski, Vt.). Use a reagent injector to dispense 100 μL of Luciferase assay buffer with substrate and 100 μL of Stop & Glo Reagent. And perform a 2-second pre-measurement delay, followed by a 10-second measurement period for each reporter assay. Luciferase activity data were normalized to protein content.\n(§4) To derive subclones of immortalized human white and brown progenitors with hUCP1-promoter-Luc/GFP reporter, limiting dilution of cells into 96-well plates was performed as previously described (Tchkonia, T., et al. Diabetes 55, 2571-2578, 2006). Briefly, cells were plated at 50 cells/96-well plate in DMEM/H containing 10% FBS. After 2 weeks, colonies were evident. Cells at approximately 80% confluence were trypsinized and further propagated in 48-well, then 12-well and finally 6-well plate. 152 clonal lines originated from neck superficial fat depot and 128 clonal lines from deep fat were selected for adipogenic potential after induction. The highly adipogenic clonal lines were selected for further analysis (67 clonal white fat progenitor lines; 90 clonal brown fat progenitor lines)."}, "[3]": {"system": "hWAT-SVF clones", "assay": "Clonal analysis: UCP1-luciferase response to BMP7 pretreatment", "settings": "for clones UCP1(+), BMP7 Resp(+) / clones UCP1 (−), BMP7 Resp(+) / clones UCP1(−), BMP7 Resp(−): hWAT-SVF clones", "protocol": "as §1, §2, §3, §4"}}}
{"molecule": "BMP7: Recombinant human BMP7, an inducer of brown adipogenesis (protein, UniProt P18075 293-431, looked up) Bone morphogenetic protein 7: STGSKQRSQNRSKTPKNQEALRMANVAENSSSDQRQACKKHELYVSFRDLGWQDWIIAPEGYAAYYCEGECAFPLNSYMNATNHAIVQTLVHFINPETVPKPCCAPTQLNAISVLYFDDSSNVILKKYRNMVVRACGCH", "values": [{"measurement": "UCP1 expression in mature adipocytes", "setting": "[1]; hWAT-SVF from both subjects and hBAT-SVF from Subject 2, 3.3 nM BMP7 pre-exposure 6 days", "result": "increased"}, {"measurement": "PPARγ expression", "setting": "[1]; mature brown adipocytes from Subject 2 only, BMP7 pretreatment", "result": "augmented"}, {"measurement": "clones that could respond to BMP7 stimulation", "setting": "[2]; hBAT-SVF clones from Subject 2 and Subject 3", "result": "more than 60%"}, {"measurement": "clones UCP1(+), BMP7 Resp(+)", "setting": "[2]; hBAT-SVF clones, Subject 1", "result": "10/41"}, {"measurement": "clones UCP1(+), BMP7 Resp(−)", "setting": "[2]; hBAT-SVF clones, Subject 1", "result": "29/41"}, {"measurement": "clones UCP1(+), BMP7 Resp(−), percent", "setting": "[2]; hBAT-SVF clones, Subject 1", "result": "(71%)"}, {"measurement": "clones UCP1(−), BMP7 Resp(−)", "setting": "[2]; hBAT-SVF clones, Subject 1", "result": "2/41"}, {"measurement": "clones UCP1(+), BMP7 Resp(+)", "setting": "[2]; hBAT-SVF clones, Subject 2", "result": "10/15"}, {"measurement": "clones UCP1(+), BMP7 Resp(+), percent", "setting": "[2]; hBAT-SVF clones, Subject 2", "result": "(67%)"}, {"measurement": "clones UCP1(+), BMP7 Resp(−)", "setting": "[2]; hBAT-SVF clones, Subject 2", "result": "5/15"}, {"measurement": "clones UCP1(−), BMP7 Resp(−)", "setting": "[2]; hBAT-SVF clones, Subject 2", "result": "0/15"}, {"measurement": "clones UCP1(+), BMP7 Resp(+)", "setting": "[2]; hBAT-SVF clones, Subject 3", "result": "9/15"}, {"measurement": "clones UCP1(+), BMP7 Resp(+), percent", "setting": "[2]; hBAT-SVF clones, Subject 3", "result": "(60%)"}, {"measurement": "clones UCP1(+), BMP7 Resp(−)", "setting": "[2]; hBAT-SVF clones, Subject 3", "result": "3/15"}, {"measurement": "clones UCP1(−), BMP7 Resp(−)", "setting": "[2]; hBAT-SVF clones, Subject 3", "result": "3/15"}, {"measurement": "clones UCP1(+), BMP7 Resp(+)", "setting": "[2]; hBAT-SVF clones, Subject 4", "result": "5/19"}, {"measurement": "clones UCP1(+), BMP7 Resp(−)", "setting": "[2]; hBAT-SVF clones, Subject 4", "result": "14/19"}, {"measurement": "clones UCP1(+), BMP7 Resp(−), percent", "setting": "[2]; hBAT-SVF clones, Subject 4", "result": "(74%)"}, {"measurement": "clones UCP1(−), BMP7 Resp(−)", "setting": "[2]; hBAT-SVF clones, Subject 4", "result": "0/19"}, {"measurement": "clones that could be induced by BMP7 pretreatment", "setting": "[2]; hBAT-SVF clones, all subjects, response = more than 1.5-fold increase of luciferase activity", "result": "up to 37%"}, {"measurement": "response to BMP7 pretreatment", "setting": "[2]; majority of the hBAT-SVF clones from Subject 1 and Subject 4", "result": "not responsive"}, {"measurement": "clones UCP1(+), BMP7 Resp(+)", "setting": "[3]; Subject 1", "result": "0/32"}, {"measurement": "clones UCP1 (−), BMP7 Resp(+)", "setting": "[3]; Subject 1", "result": "0/32"}, {"measurement": "clones UCP1(−), BMP7 Resp(−)", "setting": "[3]; Subject 1", "result": "32/32"}, {"measurement": "clones UCP1(+), BMP7 Resp(+)", "setting": "[3]; Subject 2", "result": "0/20"}, {"measurement": "clones UCP1 (−), BMP7 Resp(+)", "setting": "[3]; Subject 2", "result": "0/20"}, {"measurement": "clones UCP1(−), BMP7 Resp(−)", "setting": "[3]; Subject 2", "result": "20/20"}, {"measurement": "clones UCP1(+), BMP7 Resp(+)", "setting": "[3]; Subject 3", "result": "1/12"}, {"measurement": "clones UCP1 (−), BMP7 Resp(+)", "setting": "[3]; Subject 3", "result": "0/12"}, {"measurement": "clones UCP1(−), BMP7 Resp(−)", "setting": "[3]; Subject 3", "result": "11/12"}, {"measurement": "clones UCP1(+), BMP7 Resp(+)", "setting": "[3]; Subject 4", "result": "0/3"}, {"measurement": "clones UCP1 (−), BMP7 Resp(+)", "setting": "[3]; Subject 4", "result": "0/3"}, {"measurement": "clones UCP1(−), BMP7 Resp(−)", "setting": "[3]; Subject 4", "result": "3/3"}, {"measurement": "clones that could respond to BMP7 pretreatment", "setting": "[3]; highly adipogenic hWAT-SVF clones, response = more than 1.5-fold increase of luciferase activity", "result": 1, "unit": "%"}]}
